Laboratory results taken from the supplement of paper PMC10201428.
± gives the standard deviation of the averaged measurements.

Key:
[1] = test system: VchCAST RNA-guided transposition machinery (E. coli BL21(DE3) host, lacZ target); test: relative integration efficiency (T-LR orientation) vs wild-type transposon end (log2 (normalized fold change)); transposon end mutated: right end (5 bp flank + 75 bp right end); higher = more efficient transposition
Procedure, shortened: (§1)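 Barcode abundances in input plasmids and in genomic integration junctions were obtained by PCR amplification and Illumina sequencing. These came from E. coli BL21(DE3) co-transformed with a T7-driven effector plasmid and a pUC57 donor carrying 1549 left-end or 1849 right-end transposon variants, then plated with 0.1 mM IPTG at 37°C for 18 h. Relative integration efficiency is the output/input fold change, normalised to reference barcodes and log-transformed.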

[2] = test system: VchCAST RNA-guided transposition machinery (E. coli BL21(DE3) host, lacZ target); test: relative integration efficiency (T-RL orientation) vs wild-type transposon end (log2 (normalized fold change)); transposon end mutated: right end (5 bp flank + 75 bp right end); higher = more efficient transposition
Procedure, shortened: as §1

Sequence	relative integration efficiency (log2) [1]	relative integration efficiency (log2) [2]
ACATTTGTGGATACAACCATAAAATGATAATTACACCCATAAATTCATCATTATCACACCCAATTTAACTATAACGCTCTGATCATAGTCAGACCAACATTGCTACGACCCGTATTCGCACCGACAC	1.48 ± 0.12	-2.03 ± 0.49
ACATTTGTGGATACAACCATAAAATGATAATTACACCCATAAATTCATCATTATCACCCCCAATTTAACTATAACGCTCTGATCATAGTCAGACCAACATTGCTACGACCCGTATTCGCACCGACAC	1.385 ± 0.0021	-1.88 ± 0.43
ACATTTGTGGATACAACCATAAAATGATAATTACACCCATAAATTCATTATTATCACACCCAATTTAACTATAACGCTCTGATCATAGTCAGACCAACATTGCTACGACCCGTATTCGCACCGACAC	0.908 ± 0.36	-2.59 ± 0.53
ACATTTGTGGATACAACCATAAAATGATAATTACACCCATAAATTGATAATTATCACCCCCAATTTAACTATAACGCTCTGATCATAGTCAGACCAACATTGCTACGACCCGTATTCGCACCGACAC	2.44 ± 0.065	-0.606 ± 0.13
ACATTTGTGGATACAACCATAAAATGATAATTACACCCATAAATTGATCATTATCACACCCAATTTAACTATAACGCTCTGATCATAGTCAGACCAACATTGCTACGACCCGTATTCGCACCGACAC	1.89 ± 0.19	-1.46 ± 0.31
ACATTTGTGGATACAACCATAAAATGATAATTACACCCATAAATTGATCATTATCACCCCCAATTTAACTATAACGCTCTGATCATAGTCAGACCAACATTGCTACGACCCGTATTCGCACCGACAC	1.99 ± 0.056	-1.27 ± 0.17
ACATTTGTGGATACAACCATAAAATGATAATTACACCCATAAATTTATAATTATCACACCCAATTTAACTATAACGCTCTGATCATAGTCAGACCAACATTGCTACGACCCGTATTCGCACCGACAC	1.8 ± 0.36	-1.09 ± 0.41
ACATTTGTGGATACAACCATAAAATGATAATTACACCCATAAATTTATTATTATCACACCCAATTTAACTATAACGCTCTGATCATAGTCAGACCAACATTGCTACGACCCGTATTCGCACCGACAC	1.47 ± 0.11	-2.14 ± 0.55
ACATTTGTGGATACAACCATAAAATGATAATTACCACCCATAAATTGATAATTATCACACCCATTTAACTATAACGCTCTGATCATAGTCAGACCAACATTGCTACGACCCGTATTCGCACCGACAC	1.54 ± 0.083	-1.11 ± 0.24
ACATTTGTGGATACAACCATAAAATGATAATTACCACCCATACATTGATAATTATCACACCCATTTAACTATAACGCTCTGATCATAGTCAGACCAACATTGCTACGACCCGTATTCGCACCGACAC	-0.296 ± 0.095	-2.53 ± 0.19
ACATTTGTGGATACAACCATAAAATGATAATTACCACCCCTAAATTGATAATTATCACACCCATTTAACTATAACGCTCTGATCATAGTCAGACCAACATTGCTACGACCCGTATTCGCACCGACAC	-0.51 ± 0.037	-2.781 ± 0.006
ACATTTGTGGATACAACCATAAAATGATAATTACCACCCCTACATTGATAATTATCACACCCATTTAACTATAACGCTCTGATCATAGTCAGACCAACATTGCTACGACCCGTATTCGCACCGACAC	-0.503 ± 0.055	-3.07 ± 0.21
ACATTTGTGGATACAACCATAAAATGATAATTCACCCATAAATTGATAATTATCACACCCCAATTTAACTATAACGCTCTGATCATAGTCAGACCAACATTGCTACGACCCGTATTCGCACCGACAC	1.23 ± 0.028	-1.92 ± 0.17
ACATTTGTGGATACAACCATAAAATGATAATTCACCCATCAATTGATAATTATCACACCCCAATTTAACTATAACGCTCTGATCATAGTCAGACCAACATTGCTACGACCCGTATTCGCACCGACAC	0.328 ± 0.26	-2.89 ± 0.38
ACATTTGTGGATACAACCCTAAAATGATAATTACACCCATAAATGGATAATTATCACACCCAATTTAACTATAACGCTCTGATCATAGTCAGACCAACATTGCTACGACCCGTATTCGCACCGACAC	-0.593 ± 0.47	-3.64 ± 0.39
ACATTTGTGGATACAACCCTAAAATGATAATTACACCCATAAATGGATAATTATCACCCCCAATTTAACTATAACGCTCTGATCATAGTCAGACCAACATTGCTACGACCCGTATTCGCACCGACAC	-1.16 ± 0.27	-3.8 ± 0.4
ACATTTGTGGATACAACCCTAAAATGATAATTACACCCATAAATGGATCATTATCACACCCAATTTAACTATAACGCTCTGATCATAGTCAGACCAACATTGCTACGACCCGTATTCGCACCGACAC	-1.6 ± 0.071	-3.94 ± 0.38
ACATTTGTGGATACAACCCTAAAATGATAATTACACCCATAAATGGATCATTATCACCCCCAATTTAACTATAACGCTCTGATCATAGTCAGACCAACATTGCTACGACCCGTATTCGCACCGACAC	-1.88 ± 0.26	-4.36 ± 0.35

Sequence	relative integration efficiency (log2) [1]	relative integration efficiency (log2) [2]
ACATTTGTGGATACAACCCTAAAATGATAATTACACCCATAAATTCATAATTATCACACCCAATTTAACTATAACGCTCTGATCATAGTCAGACCAACATTGCTACGACCCGTATTCGCACCGACAC	-2.97 ± 0.11	-5.07 ± 0.49
ACATTTGTGGATACAACCCTAAAATGATAATTACACCCATAAATTCATAATTATCACCCCCAATTTAACTATAACGCTCTGATCATAGTCAGACCAACATTGCTACGACCCGTATTCGCACCGACAC	-2.64 ± 0.13	-4.88 ± 0.16
ACATTTGTGGATACAACCCTAAAATGATAATTACACCCATAAATTCATCATTATCACACCCAATTTAACTATAACGCTCTGATCATAGTCAGACCAACATTGCTACGACCCGTATTCGCACCGACAC	-1.67 ± 0.21	-4.92 ± 0.15
ACATTTGTGGATACAACCCTAAAATGATAATTACACCCATAAATTCATCATTATCACCCCCAATTTAACTATAACGCTCTGATCATAGTCAGACCAACATTGCTACGACCCGTATTCGCACCGACAC	-1.47 ± 0.4	-4.53 ± 0.011
ACATTTGTGGATACAACCCTAAAATGATAATTACACCCATAAATTGATAATTATCACACCCAATTTAACTATAACGCTCTGATCATAGTCAGACCAACATTGCTACGACCCGTATTCGCACCGACAC	1.32 ± 0.36	-1.73 ± 0.26
ACATTTGTGGATACAACCCTAAAATGATAATTACACCCATAAATTGATAATTATCACCCCCAATTTAACTATAACGCTCTGATCATAGTCAGACCAACATTGCTACGACCCGTATTCGCACCGACAC	0.686 ± 0.29	-2.2 ± 0.29
ACATTTGTGGATACAACCCTAAAATGATAATTACACCCATAAATTGATCATTATCACACCCAATTTAACTATAACGCTCTGATCATAGTCAGACCAACATTGCTACGACCCGTATTCGCACCGACAC	0.117 ± 0.091	-3.19 ± 0.51
ACATTTGTGGATACAACCCTAAAATGATAATTACACCCATAAATTGATCATTATCACCCCCAATTTAACTATAACGCTCTGATCATAGTCAGACCAACATTGCTACGACCCGTATTCGCACCGACAC	0.316 ± 0.5	-2.87 ± 0.27
ACATTTGTGGATCCAACCATAAAATGATAATTACACCCATAAATGGATAATTATCACACCCAATTTAACTATAACGCTCTGATCATAGTCAGACCAACATTGCTACGACCCGTATTCGCACCGACAC	1.18 ± 0.021	-1.38 ± 0.18
ACATTTGTGGATCCAACCATAAAATGATAATTACACCCATAAATGGATCATTATCACACCCAATTTAACTATAACGCTCTGATCATAGTCAGACCAACATTGCTACGACCCGTATTCGCACCGACAC	0.845 ± 0.06	-1.79 ± 0.39
ACATTTGTGGATCCAACCATAAAATGATAATTACACCCATAAATTCATAATTATCACACCCAATTTAACTATAACGCTCTGATCATAGTCAGACCAACATTGCTACGACCCGTATTCGCACCGACAC	1.043 ± 0.0096	-2.04 ± 0.41
ACATTTGTGGATCCAACCATAAAATGATAATTACACCCATAAATTCATCATTATCACACCCAATTTAACTATAACGCTCTGATCATAGTCAGACCAACATTGCTACGACCCGTATTCGCACCGACAC	1.15 ± 0.38	-2.28 ± 0.22
ACATTTGTGGATCCAACCATAAAATGATAATTACACCCATAAATTGATAATTATCACACCCAATTTAACTATAACGCTCTGATCATAGTCAGACCAACATTGCTACGACCCGTATTCGCACCGACAC	2.06 ± 0.17	-0.789 ± 0.2
ACATTTGTGGATCCAACCATAAAATGATAATTACACCCATAAATTGATCATTATCACACCCAATTTAACTATAACGCTCTGATCATAGTCAGACCAACATTGCTACGACCCGTATTCGCACCGACAC	1.72 ± 0.11	-1.6 ± 0.2
ACATTTGTGTATACAACCATAAAATGATAATTACACCCATAAATTGATAATTATCACACCCATAAATTGATATTGCCTCTGATCATAGTCAGACCAACATTGCTACGACCCGTATTCGCACCGACAC	-0.811 ± 0.61	0.00813 ± 0.2
ACATTTGTGTCGACAACCATAAAATGATAATTACACCCATAAATTGATAATTATCACACCCATAAATTGATATTGCCTCTGATCATAGTCAGACCAACATTGCTACGACCCGTATTCGCACCGACAC	-2.89 ± 0.57	-0.916 ± 0.027
ACATTTGTTAAAAAAACCATACGTTGATTTTACGAAACCATACGCTGAAATAATCACACCCATAAATTGATATTGCCTCTGATCATAGTCAGACCAACATTGCTACGACCCGTATTCGCACCGACAC	-5.9 ± 0.37	-5.94 ± 0.086
